Results published in patent publication US20110117113A1, “IMMUNOGLOBULIN SINGLE VARIABLE DOMAIN DIRECTED AGAINST HUMAN CXCR4 AND OTHER CELL ASSOCIATED PROTEINS AND METHODS TO GENERATE THEM” (priority 2009, published 2011).
Entries after “also recorded” stand apart in the source; their conditions may differ.

Legend:
[1] = target: T1, CXCR4 (Homo sapiens, UniProt P61073); assay: Competition binding, displacement of [^125I]-CXCL12 on membranes from HEK293T cells transiently expressing CXCR4
T1 construct: expressed in transfected cells; host or cells: HEK293T, transient; membrane fraction
T1 sequence (P61073 whole entry): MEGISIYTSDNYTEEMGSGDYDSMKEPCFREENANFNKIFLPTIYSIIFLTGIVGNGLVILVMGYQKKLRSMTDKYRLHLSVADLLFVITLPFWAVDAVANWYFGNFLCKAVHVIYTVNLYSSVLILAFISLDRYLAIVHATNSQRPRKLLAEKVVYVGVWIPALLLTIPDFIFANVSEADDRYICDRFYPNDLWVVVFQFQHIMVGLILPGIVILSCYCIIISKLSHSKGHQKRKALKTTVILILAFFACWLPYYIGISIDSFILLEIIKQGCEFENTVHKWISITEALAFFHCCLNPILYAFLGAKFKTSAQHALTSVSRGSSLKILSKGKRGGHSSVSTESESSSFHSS
Description: Iodine incorporation and specific activity were controlled via precipitation of the protein with trichloroacetic acid.
Competition binding assay—Periplasmic fractions were screened in a competition binding assay using membranes from HEK293T cells transiently expressing CXCR4. […] Membranes were then harvested over polyethylenimine (0.5%)-treated Whatman GF/C filter plates and washed three times with ice cold binding buffer containing 500 mM NaCl. Plates were counted by liquid scintillation.
Characterization of Nanobody binding to CXCR4—Following purification, receptor binding to characteristics for 238D2 and 238D4 were investigated on cell membranes from HEK293T cells transiently expressing CXCR4.
Data analysis and presentation—Data are presented as mean±S.E.M. from n independent experiments. Concentration response curves (E/[A] curves) were fitted to the Hill equation using an iterative, least-squares method (GraphPad Prism 4.0, GraphPad Software, San Diego, Calif.) to provide maximal inhibitory effects (Imax), half maximal effective (EC50) or inhibitory concentrations (IC50). Competition binding affinities and functional antagonist affinities (Ki) were calculated using the Cheng and Prusoff equation Ki=IC50/(1+[agonist]/EC50) (Cheng & Prusoff, 1973).

[2] = target: T2, CXCR4 (N119A) (Homo sapiens, UniProt P61073, N119A); assay: Competition binding with [125I]-CXCL12 on constitutively active CXCR4 mutant N119A; conditions: competition with [125I]-CXCL12 (40 pM)
T2 construct: expressed in transfected cells; host or cells: HEK293T, transient; membranes in A4, whole cells in A5
T2 sequence (P61073 whole entry N119A): as the sequence (P61073 whole entry) above, with N119A counted along it
Description: Competition binding assay—Periplasmic fractions were screened in a competition binding assay using membranes from HEK293T cells transiently expressing CXCR4. In short, periplasmic extracts (1:10) or ligands were pre-incubated with membranes in binding buffer (50 mM HEPES (pH 7.4), 1 mM CaCl2, 5 mM MgCl2, 100 mM NaCl, 0.5% bovine serum albumin) supplemented with 0.5% BSA for 1 h at 22° C. before the addition of [^125I]-CXCL12 (40 pM) or [^125I]-238D2 (3 nM) or [^125I]-238D4 (3 nM) for additional 2 h at 22° C. […] Membranes were then harvested over polyethylenimine (0.5%)-treated Whatman GF/C filter plates and washed three times with ice cold binding buffer containing 500 mM NaCl. Plates were counted by liquid scintillation.
CXCR4—specific Nanobodies behave as neutral antagonists or inverse agonists on constitutively active mutants of CXCR4—The CXCR4—specific monovalent Nanobodies 238D2 and 238D4 as well as their bivalent fusion products L3 and L8 were investigated on the constitutively active CXCR4 mutant N119A (equivalent to N3.35A in the Ballestros-Weinstein numbering of class A GPCRs). […] Despite of the large number of CAMs for other class A GPCRs and further efforts to generate additional CAMs for CXCR4 (Berchiche et al., 2007), the N119 mutants of CXCR4 remain the only known CAMs for this receptor. […] Methods: Preparation of membranes and competition binding experiments with [125I]-CXCL12 (40 pM) were performed as described before for wild type CXCR4 (vide supra).

[3] = target: T3, CXCR4 mutant 2 (V196E) (Homo sapiens, UniProt P61073, V196E); assay: Footprint assay, flow cytometry binding to CXCR4 V196E on Hek293T cells; conditions: Myc-tag detection, 10 nM and 100 nM Nanobody, average n = 3, relative to hCXCR4
T3 construct: expressed in transfected cells; host or cells: Hek293T, transient, pcDNA3.1
T3 sequence (P61073 whole entry V196E): as the sequence (P61073 whole entry) above, with V196E counted along it
From the text: Based on the data from example 1.8, we introduced 3 single point-mutations in ECL2 of CXCR4 that allowed to discriminate between 238D2 and 238D4-like epitopes: V196E (specifically disturbing D2 binding)-SEQ ID NO: 20, D187V (specifically disturbing D4 binding)-SEQ ID NO: 21, F189V (disturbing binding of both D2 and D4)-SEQ ID NO: 19. […] For the epitope mapping, transient transfections of the three CXCR4 mutants and wildtype human CXCR4 in the pcDNA3.1 vector were done in Hek293T cells, after which Nanobody binding of different families was assessed by flow cytometry using detection of the Myc-tag, followed by secondary anti-mouse PE. Two concentrations of Nanobody were tested, 10 nM and 100 nM, and experiment was repeated with essentially the same results. Binding of the Nanobodies to HEK293T hCXCR4 cells was used for normalization using the following formulas:
Percentage of binding to the mutant receptors was calculated for each Nanobody concentration, and a position was considered as critical when less than 25% residual binding (average of n=3) was observed (Table C-5). […] Nanobodies could be grouped according to their different binding patterns, not only in “238D2-like” or “epitope A binders” and “238D4-like” or “epitope B binders” but also into other new groups.

functional antagonist affinities (Ki) to CXCR4 ([1]; in words, [^125I]-CXCL12 displacement): low nanomolar range
[^125I]-CXCL12 Displacem. (%) ([1]; maximal displacement, membranes from HEK293T cells transiently expressing CXCR4, mean ± S.E.M.): 93 ± 5%
[^125I]-CXCL12 pKi ([1]; receptor affinity, membranes from HEK293T cells transiently expressing CXCR4, mean ± S.E.M.): 8.01 ± 0.12
B1: 238D2: monovalent anti CXCR4 Nanobody, SEQ ID NO: 2 (protein)
VHH: EVQLVESGGGLVQTGGSLRLSCAASGFTFSSYAMSWVRQAPGKGLEWVSGIKSSGDSTRYAGSVKGRFTISRDNAKNMLYLQMYSLKPEDTAVYYCAKSRVSRTGLYTYDNRGQGTQVTVSS
modifications: Nanobody
displacement of specifically bound [^125I]-CXCL12 (in words) ([1]; membranes from HEK293T cells transiently expressing CXCR4): strongly displacing; also recorded: fully displace
binding affinities to CXCR4 (N119A) compared to wild type (in words) [2]: somewhat less compared to the wild type receptor
binding to CXCR4 (N119A) (in words) ([2]; highest nanobody test concentration 2 μM): able to bind to CXCR4 (N119A); also recorded: clearly bind to the mutant receptor
Hek293T V196E binding [3]: − (<=25% binding to mutant rel. to hCXCR4)
